Reference: article PMC3929611, “Generation of Recombinant Antibodies to Rat GABAA Receptor Subunits by Affinity Selection on Synthetic Peptides” (PLoS ONE, 2014)
Primed or numbered codes have the meaning given here. Ends that are not written are not given here. * marks the point of attachment. Biotin = O=C1N[C@H]2[C@H](CS[C@H]2CCCCC(=O)*)N1; FITC′ = fluorescein isothiocyanate

Experiments:
[1] = molecular target: T1, biotinylated α1 peptide (GABAA receptor α1 subunit peptide) (Rattus norvegicus, SMILES …); assay: SRU BIND Reader (label-free plate-based biosensor); biotinylated peptides (10 µg/mL) captured on streptavidin-coated BIND plates, blocked with PBST + 5% BSA, scFvs (0.008-17.5 µM) added in elution buffer, 1 h at RT; shift of peak wavelength against concentration; conditions: both partners purified
T1 construct: Serine-Glycine-Serine linker between the N-terminal biotin and the peptide; GABAA receptor subunit α1, rat, residues 1-15; also called alpha 1; source: synthetic peptide
T1 chain: Biotin-SGSQPSQDELKDNTTVFT-NH2

FITC-labeled α1 peptide = molecular target: T2, FITC-labeled α1 peptide (Rattus norvegicus); assay: fluorescence polarisation; 6 µM FITC-α1 peptide or 4 µM FITC-β2 peptide with varying scFv (0-35 µM; G11 0-10 µM) or A10 scFv-Fc (0-1 µM) in PBS + 200 mM imidazole, overnight at 4°C or 2 h at RT; conditions: both partners purified
T2 construct: GABAA receptor subunit α1, rat, residues 1-15; also called FITC-conjugated target peptide (α1); source: synthetic peptide, HPLC purified
T2 chain: {FITC′}-QPSQDELKDNTTVFT

[2] = molecular target: T3, α1β2γ2 GABAA receptor expressed in Xenopus laevis oocytes (rat α1, rat β2 and human γ2 subunit sequences) (Rattus norvegicus (alpha1, beta2); Homo …, UniProt P62813;P63138;P18507); assay: immunostaining of cells or tissue; Xenopus oocytes expressing α1β2γ2 GABAA receptors or non-expressing, blocked with 10% fetal bovine serum, incubated with scFv overnight at 16°C, detected with FITC-conjugated M2 anti-Flag, confocal microscopy; conditions: one partner purified
T3 construct: GABAA receptor subunit α1, rat; GABAA receptor subunit β2, rat; GABAA receptor subunit γ2, human; also called intact GABAA receptor; GABAA receptors heterologously expressed by Xenopus laevis oocytes; source: Xenopus laevis oocytes injected with mRNA of each subunit, on the oocyte surface; copies: + +
T3 sequence (P62813 28-455, chain 1 of 3): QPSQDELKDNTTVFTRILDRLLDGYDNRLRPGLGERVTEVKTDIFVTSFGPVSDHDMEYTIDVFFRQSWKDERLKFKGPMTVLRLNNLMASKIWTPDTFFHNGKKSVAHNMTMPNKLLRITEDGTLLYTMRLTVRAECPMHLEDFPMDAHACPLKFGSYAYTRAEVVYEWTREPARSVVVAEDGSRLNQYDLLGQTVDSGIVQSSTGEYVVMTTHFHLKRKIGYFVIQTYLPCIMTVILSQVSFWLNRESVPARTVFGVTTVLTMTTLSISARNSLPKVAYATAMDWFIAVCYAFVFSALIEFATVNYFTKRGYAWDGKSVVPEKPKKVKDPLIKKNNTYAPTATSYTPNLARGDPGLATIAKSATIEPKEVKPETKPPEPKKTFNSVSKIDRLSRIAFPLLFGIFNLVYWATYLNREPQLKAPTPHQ
T3 sequence (P63138 26-474, chain 2 of 3): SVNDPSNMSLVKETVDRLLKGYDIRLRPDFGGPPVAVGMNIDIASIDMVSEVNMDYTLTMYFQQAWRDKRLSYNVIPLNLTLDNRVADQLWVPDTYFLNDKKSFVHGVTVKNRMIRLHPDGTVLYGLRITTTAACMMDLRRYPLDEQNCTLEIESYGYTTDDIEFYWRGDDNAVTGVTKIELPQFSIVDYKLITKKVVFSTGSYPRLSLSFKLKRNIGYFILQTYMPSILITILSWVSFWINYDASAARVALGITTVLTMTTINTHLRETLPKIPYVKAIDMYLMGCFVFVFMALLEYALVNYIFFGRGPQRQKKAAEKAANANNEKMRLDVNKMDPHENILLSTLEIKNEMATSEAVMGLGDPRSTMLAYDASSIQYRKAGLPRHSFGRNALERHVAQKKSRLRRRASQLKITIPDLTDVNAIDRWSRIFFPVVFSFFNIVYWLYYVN
T3 sequence (P18507 40-475, chain 3 of 3): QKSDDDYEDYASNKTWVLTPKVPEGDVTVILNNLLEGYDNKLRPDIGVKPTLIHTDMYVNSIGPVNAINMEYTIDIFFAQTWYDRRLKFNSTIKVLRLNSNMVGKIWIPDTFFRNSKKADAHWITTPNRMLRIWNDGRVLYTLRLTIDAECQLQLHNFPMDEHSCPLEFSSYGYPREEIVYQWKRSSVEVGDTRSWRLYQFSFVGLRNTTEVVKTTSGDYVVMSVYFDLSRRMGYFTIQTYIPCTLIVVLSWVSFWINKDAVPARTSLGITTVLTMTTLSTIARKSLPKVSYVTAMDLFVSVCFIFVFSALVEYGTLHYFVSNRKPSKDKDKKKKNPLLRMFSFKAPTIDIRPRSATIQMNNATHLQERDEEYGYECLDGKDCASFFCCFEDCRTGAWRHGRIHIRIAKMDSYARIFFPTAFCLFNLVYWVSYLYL

[3] = molecular target: T4, GABAA receptor α1 subunit, native, in mouse retina (Mus musculus C57BL/6J, UniProt P62812); assay: immunostaining of cells or tissue; 16 µm cryosections of paraformaldehyde-fixed mouse retina, biotinylated scFv, detected with Cy5-conjugated streptavidin, confocal microscopy; conditions: one partner purified
T4 construct: GABAA receptor subunit α1, mouse, within native receptors of the retina; Tissue fixed in 4% paraformaldehyde; also called native GABAA receptors in the mouse retina; source: endogenous, C57BL/6J mouse retina, fixed cryosections
T4 sequence (P62812 28-455): as the sequence (P62813 28-455, chain 1 of 3) above

[4] = molecular target: T5, MBP-α1 peptide fusion protein (Rattus norvegicus); assay: far-Western, overlay or dot blot; dot blot; 1 µg to 0.0075 µg MBP-fusion protein adsorbed on PVDF membrane, about 10 nM A10 scFv or A10 scFv-Fc overnight at 4°C, detected with α-Flag-800CW; conditions: both partners purified
T5 construct: GABAA receptor subunit α1, rat, residues 1-15, inserted at the C-terminus of the MBP gene in pAT224; also called MBP-fusion protein; source: E. coli, purified (His60 Ni Superflow resin); not shown: MBP, N-terminal, kept
T5 chain: QPSQDELKDNTTVFT

[5] = molecular target: T6, biotinylated β2 peptide (GABAA receptor β2 subunit peptide) (Rattus norvegicus (paper: rat/human), biotin at the N-terminus; C-terminal amide); assay: SRU BIND Reader (label-free plate-based biosensor); biotinylated peptides (10 µg/mL) captured on streptavidin-coated BIND plates, blocked with PBST + 5% BSA, scFvs (0.008-17.5 µM) added in elution buffer, 1 h at RT; shift of peak wavelength against concentration; conditions: both partners purified
T6 construct: Serine-Glycine-Serine linker between the N-terminal biotin and the peptide; GABAA receptor subunit β2, rat/human, residues 1-19; also called beta 2; source: synthetic peptide
T6 chain: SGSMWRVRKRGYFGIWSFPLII

FITC-labeled β2 peptide = molecular target: T7, FITC-labeled β2 peptide (Rattus norvegicus (paper: rat/human)); assay: fluorescence polarisation; 6 µM FITC-α1 peptide or 4 µM FITC-β2 peptide with varying scFv (0-35 µM; G11 0-10 µM) or A10 scFv-Fc (0-1 µM) in PBS + 200 mM imidazole, overnight at 4°C or 2 h at RT; conditions: both partners purified
T7 construct: GABAA receptor subunit β2, rat/human, residues 1-19; also called FITC-conjugated target peptide (β2); source: synthetic peptide, HPLC purified
T7 chain: {FITC′}-MWRVRKRGYFGIWSFPLII

B1: A10 scFv (anti-α1 subunit-specific scFv), soluble protein (scFv, V domains shown)
VH: EVQLVQSGAEVKKPGASVKVSCKASGYTFTSYYMHWVRQAPGQGLEWMGIINPSGGSTSYAQKFQGRVTMTRDTSTSTVYMELSSLRSEDTAVYYCARDGWGGSSFLDYWGQGTLVTVSS
VL: SYELTQPPSVSVSPGQTARITCSGDALPKKYAYWYQQKSGQAPVLVIYEDSKRPSGIPERFSGSSSGTMATLTISGAQVEDEADYYCYSKDNTGYQMVFGGGTKLTVL
notes: human scFv from a naive phage-display library, order VL-linker-VH; also called scFv A10; anti-α1 scFv; source: P. pastoris X33, secreted, purified (Ni-NTA)
How did the Kd [1] turn out when B1 was run?
The Kd was 2400 nM.

What about the Kd (FITC-labeled α1 peptide) of the same binder?
The Kd was 3500 nM.

Does B1 bind [2]?
Result: binds

B2: A10 scFv, biotinylated in vitro (scFv, V domains shown)
VH: EVQLVQSGAEVKKPGASVKVSCKASGYTFTSYYMHWVRQAPGQGLEWMGIINPSGGSTSYAQKFQGRVTMTRDTSTSTVYMELSSLRSEDTAVYYCARDGWGGSSFLDYWGQGTLVTVSS
VL: SYELTQPPSVSVSPGQTARITCSGDALPKKYAYWYQQKSGQAPVLVIYEDSKRPSGIPERFSGSSSGTMATLTISGAQVEDEADYYCYSKDNTGYQMVFGGGTKLTVL
notes: as the scFv of m1; order VL-linker-VH; The same protein as m1, chemically biotinylated for staining of retinal cryosections; also called α1-specific scFv; source: P. pastoris X33, secreted, purified (Ni-NTA)
Does B2 bind [3]?
Result: binds

B3: A10 scFv-Fc (dimeric scFv-Fc version of A10) (Fc fusion, human)
VH: EVQLVQSGAEVKKPGASVKVSCKASGYTFTSYYMHWVRQAPGQGLEWMGIINPSGGSTSYAQKFQGRVTMTRDTSTSTVYMELSSLRSEDTAVYYCARDGWGGSSFLDYWGQGTLVTVSS
VL: SYELTQPPSVSVSPGQTARITCSGDALPKKYAYWYQQKSGQAPVLVIYEDSKRPSGIPERFSGSSSGTMATLTISGAQVEDEADYYCYSKDNTGYQMVFGGGTKLTVL
notes: as the scFv of m1; order VL-linker-VH; also called A10-Fc; scFv-Fc A10; source: FreeStyle 293F cells, transiently transfected, secreted, purified (His60 Ni Superflow resin); not shown: Fc (human IgG), C-terminal, kept; 3x Flag, C-terminal, kept
Which results are given for B3?
fold increase in dot-blot sensitivity over the scFv [4]: ~10 fold; Kd (FITC-labeled α1 peptide): 26 nM

B4: G8 scFv (anti-β2 subunit scFv), soluble protein (scFv, V domains shown)
VH: EVQLVQSGAEVKKPGATVKISCKVSGYTFTDYYMHWVQQAPGKGLEWMGLVDPEDGETIYAEKFQGRVTITADTSTDTAYMELSSLRSEDTAVYYCATTPPHDYYDSSGLDYWGQGTLVTVSS
VL: DIQMTQSPSSVSASVGDRVTITCRASQGINRWLAWYQQKPGKAPKLLIYAASNLQSGVPSRFSGSGSGTDFSLTISSLQPEDFATYYCQQSYSPPSTFGGGTKLEIK
notes: human scFv from a naive phage-display library, order VH-linker-VL; source: P. pastoris X33, secreted, purified (Ni-NTA)
B4 was tested. Which Kd [5] did it give?
Its Kd is 1600 nM.

And the Kd (FITC-labeled β2 peptide)?
The Kd was 970 nM.

Does B4 bind [2]?
Result: binds
